From US20240043515A1 (Chugai, published 2024) come the findings set out here.

Numbering of substitutions follows the chain as printed. Names and notes keep the numbering of the source.

To fix the notation:
T1: hFcγRIIaH on Jurkat effector cells (human, UniProt P12318 34-317)
T1 sequence (looked up): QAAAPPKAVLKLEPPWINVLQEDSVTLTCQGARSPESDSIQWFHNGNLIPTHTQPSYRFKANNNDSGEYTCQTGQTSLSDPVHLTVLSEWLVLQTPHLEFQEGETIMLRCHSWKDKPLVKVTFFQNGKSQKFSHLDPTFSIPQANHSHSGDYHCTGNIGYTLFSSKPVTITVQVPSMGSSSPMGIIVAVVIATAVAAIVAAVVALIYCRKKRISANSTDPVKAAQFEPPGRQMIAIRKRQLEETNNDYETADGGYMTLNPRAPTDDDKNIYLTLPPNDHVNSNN

T2: human FcγRIIa H extracellular domain (human, UniProt P12318 34-217)
T2 construct: extracellular domain; also called hFcγR IIa H; FcγRIIa allotype H131
T2 sequence (looked up): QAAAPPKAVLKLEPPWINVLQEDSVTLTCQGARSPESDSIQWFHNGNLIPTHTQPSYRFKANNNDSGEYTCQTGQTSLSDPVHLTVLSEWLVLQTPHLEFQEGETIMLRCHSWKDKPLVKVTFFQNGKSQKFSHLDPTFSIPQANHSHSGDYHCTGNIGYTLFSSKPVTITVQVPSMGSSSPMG

T3: human FcγRIIa R extracellular domain (human, UniProt P12318 34-217)
T3 construct: extracellular domain; also called hFcγR IIa R; FcγRIIa allotype R131
T3 sequence (looked up): T2 sequence (looked up) with H134R

T4: human FcγRIIb extracellular domain (human, UniProt P31994 43-217)
T4 construct: extracellular domain; also called hFcγR IIb
T4 sequence (looked up): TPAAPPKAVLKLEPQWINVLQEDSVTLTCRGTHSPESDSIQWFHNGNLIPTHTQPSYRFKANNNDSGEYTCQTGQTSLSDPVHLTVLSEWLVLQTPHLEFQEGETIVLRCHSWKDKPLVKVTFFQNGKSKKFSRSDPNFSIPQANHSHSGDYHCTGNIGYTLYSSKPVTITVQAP

B1: EGL-ART5 (H240-Kn462/L73-k0//H240-H1441/L73-k0) (antibody, human IgG1, kappa)
heavy 1: QDQLVQSGAEVKKPGASVKVSCKASGFNIKDTYIQWVRQAPGQGLEWMGRIDPLRKQTKYREKFEGRVTITADTSTNTAYMELSSLRSEDTAVYYCVRSGREFDYWGQGTLVTVSSASTKGPSVFPLAPSSKSTSGGTAALGCLVKDYFPEPVTVSWNSGALTSGVHTFPAVLQSSGLYSLSSVVTVPSSSLGTQTYICNVNHKPSNTKVDKKVEPKSCDKTHTCPPCPAPEFQWGPMVFLFPPKPKDVLMISRTPEVTCVVVDVSDEEPEVKFNWYVDGVEVHNAKTKPREEQYNATYRVVSVLPVLHQDWLNGKEYKCKVSNDALPAPIEKTISKAKGQPREPQVCTLPPSRDELTKNQVSLWCLVKGFYPSDIAVEWESNGQPENNYKTTPPVLDSDGSFFLYSKLTVDKSRWQQGNVFSCSVMHEALHNHYTQKSLSLSP
heavy 2: QDQLVQSGAEVKKPGASVKVSCKASGFNIKDTYIQWVRQAPGQGLEWMGRIDPLRKQTKYREKFEGRVTITADTSTNTAYMELSSLRSEDTAVYYCVRSGREFDYWGQGTLVTVSSASTKGPSVFPLAPSSKSTSGGTAALGCLVKDYFPEPVTVSWNSGALTSGVHTFPAVLQSSGLYSLSSVVTVPSSSLGTQTYICNVNHKPSNTKVDKKVEPKSCDKTHTCPPCPAPELLAGPSVFLFPPKPKDVLMISRTPEVTCVVVDVSHEEPEVKFNWYVDGVEVHNAKTKPREEQYNATYRVVSVLPVLHQDWLNGKEYKCKVSNDALPAPIEETISKAKGQPREPQVYTLPPSRCELTKNQVSLSCAVKGFYPSDIAVEWESNGQPENNYKTTPPVLDSDGSFFLVSKLTVDKSRWQQGNVFSCSVMHEALHNHYTQKSLSLSP
light: DIQMTQSPSSLSASVGDRVTITCRASQDIHKYIAWYQQKPGQAPRLLIQYTSTLQPGVPSRFSGSGSGTDYTFTISSLQPEDIATYYCLQYEQLRTFGGGTKVEIKRTVAAPSVFIFPPSDEQLKSGTASVVCLLNNFYPREAKVQWKVDNALQSGNSQESVTEQDSKDSTYSLSSTLTLSKADYEKHKVYACEVTHQGLSSPVTKSFNRGEC
notes: Kn462: L234F/L235Q/G236W/S239M/T250V/H268D/D270E/S298A/T307P/K326D + Y349C/T366W; H1441: G236A/T250V/D270E/S298A/T307P/K326D/K334E + D356C/T366S/L368A/Y407V
B2: EGL-ART10 (H240-Kn494/L73-k0//H240-H1514/L73-k0) (antibody, human IgG1, kappa)
heavy 1: B1 heavy 1 with D325K, I331E
heavy 2: B1 heavy 2 with A235G, I331E
light: B1 light
notes: Kn494: L234F/L235Q/G236W/S239M/T250V/H268D/D270E/S298A/T307P/I332E + Y349C/T366W; H1514: T250V/D270E/S298A/T307P/K326D/I332E/K334E + D356C/T366S/L368A/Y407V
B3: EGL-ART12 (H240-Kn498/L73-k0//H240-H1518/L73-k0) (antibody, human IgG1, kappa)
heavy 1: B1 heavy 1 with D325K, A329M
heavy 2: B1 heavy 2 with A235G, A329M
light: B1 light
notes: Kn498: L234F/L235Q/G236W/S239M/T250V/H268D/D270E/S298A/T307P/A330M + Y349C/T366W; H1518: T250V/D270E/S298A/T307P/K326D/A330M/K334E + D356C/T366S/L368A/Y407V
B4: EGL-ART6 (H240-Kn462/L73-k0//H240-H1445/L73-k0) (antibody, human IgG1, kappa)
heavy 1: B1 heavy 1
heavy 2: B1 heavy 2 with A329K, I331D
light: B1 light
notes: H1445: G236A/T250V/D270E/S298A/T307P/K326D/A330K/I332D/K334E + D356C/T366S/L368A/Y407V

T5 sequence (P12314 16-292): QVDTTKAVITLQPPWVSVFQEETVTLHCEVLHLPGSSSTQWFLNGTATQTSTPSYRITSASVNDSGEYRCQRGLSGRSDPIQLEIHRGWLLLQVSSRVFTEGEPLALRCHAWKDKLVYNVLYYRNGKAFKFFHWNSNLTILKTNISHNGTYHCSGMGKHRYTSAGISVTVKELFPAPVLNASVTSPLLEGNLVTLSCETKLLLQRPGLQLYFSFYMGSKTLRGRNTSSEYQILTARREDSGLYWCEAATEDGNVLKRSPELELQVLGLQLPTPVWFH
T6 sequence (P08637 17-208): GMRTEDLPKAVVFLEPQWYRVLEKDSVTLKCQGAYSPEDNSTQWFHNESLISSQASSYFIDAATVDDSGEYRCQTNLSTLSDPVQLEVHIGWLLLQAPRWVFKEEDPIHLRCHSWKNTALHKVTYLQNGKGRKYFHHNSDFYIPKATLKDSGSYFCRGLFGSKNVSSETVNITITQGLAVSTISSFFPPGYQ
T7 sequence (P08637 17-208 F176V): as the sequence (P08637 17-208) above, with F160V counted along it

In one assay the target is hFcγRIIIaV on Jurkat effector cells (human, UniProt P08637 17-254). Kind of assay: cell-based or functional assay.
Sequence of hFcγRIIIaV on Jurkat effector cells (P08637 17-254, form in doubt): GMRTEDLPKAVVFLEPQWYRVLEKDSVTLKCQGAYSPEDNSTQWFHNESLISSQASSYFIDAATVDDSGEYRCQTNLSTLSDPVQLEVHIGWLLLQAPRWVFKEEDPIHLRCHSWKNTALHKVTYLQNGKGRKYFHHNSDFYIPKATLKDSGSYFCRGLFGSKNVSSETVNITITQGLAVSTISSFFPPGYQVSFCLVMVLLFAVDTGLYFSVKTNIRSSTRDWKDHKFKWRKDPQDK
As to B1, the “EC50 of reporter gene induction (ADCC Reporter Bioassay, Hepa1-6/hEREG target cells)” value was 0.00167 µg/mL.
Still for that read-out and setting: in the case of B2 it was 0.000107 µg/mL.
On the same count and under the same terms, in the case of B3 it was 0.000304 µg/mL.
Take B4: the “EC50 of reporter gene induction (ADCC Reporter Bioassay, Hepa1-6/hEREG target cells)” value worked out at 0.0015 µg/mL.

For another assay, the target named is T1, hFcγRIIaH on Jurkat effector cells. Kind of assay: cell-based or functional assay.
Turning to B1, the “EC50 of reporter gene induction (ADCP Reporter Bioassay, Hepa1-6/hEREG target cells)” value worked out at 0.0245 µg/mL.
Take B2: the “EC50 of reporter gene induction (ADCP Reporter Bioassay, Hepa1-6/hEREG target cells)” value turned out to be 0.0419 µg/mL.
The same measure, in the same setting: in the case of B3 it was 0.085 µg/mL.
On the same count and under the same terms, the value for B4 was 0.0192 µg/mL.

Another assay has as its target T5, human FcγRIa extracellular domain (human, UniProt P12314 16-292).
T5 construct: extracellular domain; also called hFcγR Ia
Kind of assay: SPR; KD of G1d divided by KD of this antibody. The procedure: (§1) The extracellular domains of FcγRs were produced by the method described in WO2014104165. The interaction between the produced antibodies and human FcγRs was analyzed using Biacore 8K+ by the method below. For the running buffer, 50 mM Na-Phosphate, 150 mM NaCl, and 0.05% Tween20 (pH 7.4) was used, and measurement was performed at 25° C. The sensor chip used was a Series S SA chip (GE Healthcare) onto which CaptureSelect Human Fab-kappa Kinetics Biotin Conjugate (Thermo Fisher Scientific) was immobilized. An antibody of interest was captured onto this chip, and each FcγR diluted with the running buffer was allowed to interact with it. The chip was regenerated using 10 mM Glycine-HCl (pH 1.5), and repeatedly used to capture antibodies and perform measurement. The dissociation constants KD (mol/L) of each antibody for FcγRs were calculated using Biacore Insight Evaluation Software, with a steady state affinity model for the dissociation constant for FcγRIIb and a 1:1 Langmuir binding model for the dissociation constants for the other FcγRs (Table 2).
For orientation: In SPR one partner is held on a chip, and binding of the other changes the refractive index at the surface.
With B1, the “Relative value to KD between G1d and hFcgRs” value (“Relative value” below) amounted to 0.5 times.
The same measure, in the same setting: in the case of B2 it was 3.4 times.
Same read-out and setting: in the case of B3 it was 3.4 times.
On the same count and under the same terms, the value for B4 was 1.2 times.

For a further assay, the target named is T2, human FcγRIIa H extracellular domain. The assay is described as follows: SPR; KD of G1d divided by KD of this antibody. The procedure: as §1
Turning to B1, the “Relative value” value came out at 33.9 times.
The same measure, in the same setting: in the case of B2 it was 2.7 times.
On the same count and under the same terms, the value for B3 was 3.1 times; that for B4 was 118 times.

The target in a further assay is T3, human FcγRIIa R extracellular domain. The assay is described as follows: SPR; KD of G1d divided by KD of this antibody. As to the method:
as §1
For B1, the “Relative value” value is 10.4 times.
Same read-out and setting: in the case of B2 it was 1.5 times; in that of B3, 1 times; in that of B4, 24.1 times.

A further assay has as its target T4, human FcγRIIb extracellular domain. Kind of assay: SPR; KD of G1d divided by KD of this antibody. As to the method:
as §1
As for B1, the “Relative value” value stood at 1.3 times.
On the same count and under the same terms, in the case of B2 it was 1.4 times; in that of B3, 0.5 times; in that of B4, 3.4 times.

Another assay addresses T6, human FcγRIIIa F extracellular domain (human, UniProt P08637 17-208).
T6 construct: extracellular domain; also called hFcγR IIIa F; FcγRIIIa allotype F158
The assay is described as follows: SPR; KD of G1d divided by KD of this antibody. As to the method:
as §1
For the molecule B1, the “Relative value” value is 148 times.
On the same count and under the same terms, the value for B2 was 1290 times.
Same read-out and setting: in the case of B3 it was 578 times; in that of B4, 987 times.

A further assay addresses T7, human FcγRIIIa V extracellular domain (human, UniProt P08637 17-208).
T7 construct: extracellular domain; also called hFcγR IIIa V; FcγRIIIa allotype V158
The assay is described as follows: SPR; KD of G1d divided by KD of this antibody. As to the method:
as §1
With B1, the “Relative value” value was found to be 92.9 times.
Still for that read-out and setting: the value for B2 was 566 times; that for B3 was 158 times.
The same measure, in the same setting: in the case of B4 it was 322 times.

The next assay concerns the target T2, human FcγRIIa H extracellular domain. The assay is described as follows: SPR; KD for hFcγRIIb divided by KD for this FcγR. As to the method:
as §1
Take B1: the “A/I ratio (KD for FcγRIIb divided by KD for each FcγR)” value amounted to 240 ratio.
Same read-out and setting: in the case of B2 it was 17.3 ratio; in that of B3, 60.3 ratio; in that of B4, 307 ratio.

A further assay has as its target T3, human FcγRIIa R extracellular domain. The assay is described as follows: SPR; KD for hFcγRIIb divided by KD for this FcγR. As to the method: as §1
B1: the “A/I ratio (KD for FcγRIIb divided by KD for each FcγR)” value worked out at 49.9 ratio.
On the same count and under the same terms, in the case of B2 it was 6.6 ratio; in that of B3, 12.8 ratio.
On the same count and under the same terms, the value for B4 was 42.4 ratio.

The target of the next assay is T6, human FcγRIIIa F extracellular domain. Kind of assay: SPR; KD for hFcγRIIb divided by KD for this FcγR. As to the method:
as §1
On to B1, for which the “A/I ratio (KD for FcγRIIb divided by KD for each FcγR)” value is 399 ratio.
The same measure, in the same setting: in the case of B2 it was 3160 ratio; in that of B3, 4310 ratio; in that of B4, 976 ratio.

For a further assay, the target named is T7, human FcγRIIIa V extracellular domain. Kind of assay: SPR; KD for hFcγRIIb divided by KD for this FcγR. As to the method:
as §1
For B1, the “A/I ratio (KD for FcγRIIb divided by KD for each FcγR)” value amounted to 2060 ratio.
Still for that read-out and setting: the value for B2 was 11400 ratio; that for B3 was 9720 ratio; that for B4 was 2630 ratio.
